pKd: −log10 of the molar value.

Assay in all cases: SPR
Background: In SPR one partner is held on a chip, and binding of the other changes the refractive index at the surface.

The target in test [1] is human FcγRIIIa, His-tagged (human) (UniProt P08637).
Test [2] has as its target neonatal Fc receptor (FcRn), soluble, His-tagged (UniProt P55899). The following applies: pH 6.0; Running buffer not stated; Table 1 labels the measurement pH 6.0.
In test [3] the target is human neonatal Fc receptor (FcRn), His-tagged (human) (UniProt P55899).

Sequence of UniProt P08637 (P08637 17-208): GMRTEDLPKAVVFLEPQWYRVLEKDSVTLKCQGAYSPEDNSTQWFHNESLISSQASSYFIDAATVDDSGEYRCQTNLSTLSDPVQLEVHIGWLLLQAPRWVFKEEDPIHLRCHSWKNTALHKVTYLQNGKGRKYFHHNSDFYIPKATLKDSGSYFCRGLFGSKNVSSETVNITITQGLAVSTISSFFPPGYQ

In the case of VRC01 (the wild type) (antibody), in test [1], the pKd was 5.89 and the koff came to 0.105 s⁻¹.

Regarding VRC01 (wild-type Fc) IgG1, in test [2], the Kon came to 94000 M⁻¹ s⁻¹ and the koff was found to be 0.279 s⁻¹.

In test [1], “VRC01-IHH (non-FcRn-binding mutant) (antibody)” showed a pKd of 5.35 and a koff of 0.187 s⁻¹.

In test [3], VRC01-LS (antibody) came in with a koff of 0.0558 s⁻¹ and a kon of 223000 M⁻¹ s⁻¹. Also, in test [1], the negative logarithm of the Kd (pKd) is 6.00 and the koff is 0.1 s⁻¹.

A word on the pKd: it is the negative decadic logarithm of the Kd, by convention in mol/L. The low end stands for a large Kd, the high end for a small Kd. What is called koff is the rate constant with which the complex falls apart. A high value points to fast dissociation. A word on the kon: it is the second-order rate constant of association. A lower kon goes with slower complex formation.

Source of the values: article PMC4433741.
